According to patent US20120316113A1, “FGF BASED FIBRIN BINDING PEPTIDES” (Baxter Healthcare S.A., priority 2011, published 2012):
Entries after “also recorded” stand apart in the source; their conditions may differ.

Tests used:
fibrinogen [1] = biological target: T1, fibrinogen (Homo sapiens, UniProt P02671+P02675+P02679); assay: Fibrinogen binding assay by ELISA; conditions: plate coated with 1 mg/ml fibrinogen, various concentrations, anti-His6-peroxidase detection
T1 sequence (P02671 20-629 limits assumed): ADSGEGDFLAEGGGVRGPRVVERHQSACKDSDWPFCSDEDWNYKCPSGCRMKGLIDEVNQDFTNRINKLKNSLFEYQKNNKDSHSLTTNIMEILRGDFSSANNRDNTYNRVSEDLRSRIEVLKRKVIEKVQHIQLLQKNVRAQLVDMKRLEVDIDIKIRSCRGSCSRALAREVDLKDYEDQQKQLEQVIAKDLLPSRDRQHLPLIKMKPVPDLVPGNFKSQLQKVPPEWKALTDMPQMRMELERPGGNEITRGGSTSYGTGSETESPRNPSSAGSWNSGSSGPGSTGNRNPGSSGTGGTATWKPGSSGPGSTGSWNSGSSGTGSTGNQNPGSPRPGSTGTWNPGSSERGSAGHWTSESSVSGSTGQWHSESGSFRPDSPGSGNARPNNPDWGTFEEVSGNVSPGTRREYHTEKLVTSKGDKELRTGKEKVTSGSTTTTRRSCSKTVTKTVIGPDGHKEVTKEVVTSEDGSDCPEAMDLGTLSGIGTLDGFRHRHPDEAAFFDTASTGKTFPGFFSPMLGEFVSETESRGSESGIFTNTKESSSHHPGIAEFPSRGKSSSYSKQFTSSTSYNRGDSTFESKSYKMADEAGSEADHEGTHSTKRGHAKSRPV
T1 sequence (P02675 31-491): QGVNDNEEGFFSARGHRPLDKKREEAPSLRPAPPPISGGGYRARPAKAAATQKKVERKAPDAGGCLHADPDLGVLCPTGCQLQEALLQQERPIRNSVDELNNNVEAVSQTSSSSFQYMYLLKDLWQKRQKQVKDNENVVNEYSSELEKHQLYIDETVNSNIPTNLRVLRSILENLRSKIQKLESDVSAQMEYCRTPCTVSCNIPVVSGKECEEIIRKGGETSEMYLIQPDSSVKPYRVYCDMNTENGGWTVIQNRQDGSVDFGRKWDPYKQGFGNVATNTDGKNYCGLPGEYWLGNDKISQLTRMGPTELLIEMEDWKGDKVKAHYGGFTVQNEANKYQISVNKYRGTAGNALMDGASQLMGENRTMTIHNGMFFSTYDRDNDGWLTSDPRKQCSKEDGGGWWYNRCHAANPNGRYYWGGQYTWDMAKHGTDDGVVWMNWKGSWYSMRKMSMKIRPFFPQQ
T1 sequence (P02679 27-433 limits assumed): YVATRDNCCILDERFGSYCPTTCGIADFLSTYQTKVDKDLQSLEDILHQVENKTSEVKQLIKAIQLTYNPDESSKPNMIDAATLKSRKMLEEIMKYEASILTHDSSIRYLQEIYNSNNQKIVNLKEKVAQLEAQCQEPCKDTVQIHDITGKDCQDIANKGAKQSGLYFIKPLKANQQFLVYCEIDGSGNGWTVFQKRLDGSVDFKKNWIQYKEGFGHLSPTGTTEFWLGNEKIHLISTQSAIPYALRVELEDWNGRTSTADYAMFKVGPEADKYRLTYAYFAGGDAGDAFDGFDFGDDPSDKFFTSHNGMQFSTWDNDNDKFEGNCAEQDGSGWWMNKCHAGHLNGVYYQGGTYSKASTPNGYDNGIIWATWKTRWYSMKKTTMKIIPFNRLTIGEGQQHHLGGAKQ
Method: (§1) A polystyrene 96-well plate (Nunc® Maxisorp EUSA-plates) was coated with 1 mg/ml fibrinogen (Tisseel®, Baxter AG, Vienna) overnight at 4° C. and then blocked with blocking solution (PBS+1% BSA) for 2 hours at room temperature CRT). After washing three times with PBS, purified peptides were added in various dilutions to the plate and incubated for 1 hour at RT. After the three times washing with PBS, a monoclonal anti-His6-peroxidase antibody (Sigma-Aldrich, Vienna), diluted in PBS+0.1% Tween (Sigma-Aldrich, Vienna) was added and incubated for 1 hour at RT. Finally, the plate was washed three times with PBS again and wells were incubated with o-phenylenediaminehydrochlorid substrate. Absorbance was measured at 492 nm and 620 nm. For fibrin binding analysis, the plate was first coated with fibrinogen overnight at 4° C. and then incubated with 10 I.U./ml thrombin (Tisseel, Baxter AG, Vienna) for 30 minutes at 37° C. The following procedure was the same as described above. For the surface plasmon resonance (SPR) method fibrinogen was coupled to a gold sensor chip (10% COOH—(PEG)6-C11—SH, 90% OH(PEG)3-C11—SH; Reichert Analytical, NY, USA) by amine chemistry using EDC (1-ethyl-3-[3-dimethylaminopropyl]carbodiimide hydrochloride) and NHS (N-hydroxysuccinimide) (Pierce, Ill., USA). Uncoupled sites on the gold sensor chip were blocked with 1 M ethanolamine pH 8.5 (Sigma-Aldrich, MO, USA). The purified recombinant proteins and peptides were passed over the chip's surface at a flow rate of 0.4 ml/min to 0.8 ml/min and allowed to interact. The signals were detected and recorded at the Reichert SR7000 Surface Plasmon Resonance Analytical Instrument (Reichert Analytical, NY, USA). After each measurement the sensor chip surface was regenerated by a pulse with 100 mM phosphoric acid (Mallinckrodt Chemicals, NJ, USA) after each application of the samples. Association and dissociation signals were fitted to one association curve using a prism software calculation program.
Purified, proteins and peptides in different concentrations were used for testing the binding affinity to fibrinogen and fibrin (FIG. 5).

fibrinogen [2] = biological target: T1, fibrinogen; assay: Surface plasmon resonance (SPR) binding to fibrinogen coupled to gold sensor chip; conditions: for binding signal (SPR): fibrinogen on sensor chip, fitted association curves
Method: as §1

[3] = test system: mouse myoblast cell line (C2C12); assay: Biological activity: viability (MTT) assay of mouse myoblast C2C12 cells; type: cell-based; conditions: for proliferative activity / cell growth effect: 48 hours, DMEM+1% FCS, MTT
Method: A moose myoblast cell line (C2C12; ECACC (Sigma-Aldrich, Vienna)) was grown in Dulbecco's Modified Eagle Medium (DMEM) with 10% fetal calf serum (FCS). At 50-60% confluence cells were trypsinized and transferred to a 24-well plate (1×10^4/well).
Following a 48-hour-culture period at 37° C., cells were washed with DMEM only and then covered with medium (DMEM+1% FCS) containing various concentrations of hFGF-2 or hFGF-2 peptides. After 48 hours number of viable cells was determined by adding 3-(4,5-dimethylthiazol-2-yl)-2,5-diphenyltetrazolium bromide (MTT, Sigma-Aldrich, Vienna) as previously described {M05}.

binding affinity to fibrinogen (fibrinogen [1])	binding signal (SPR) (fibrinogen [2])	binding affinity to fibrinogen (fibrinogen [1]; listed as Pep5)	Sequence	activity retained relative to the full length protein ([3]; relative to full length hFGF-2)	proliferative activity / cell growth effect [3]	binding characteristics to fibrinogen (SPR) (fibrinogen [2]; compared to full-length recombinant hFGF-2)
high affinity	weak and short binding signals		EDGRLLASKCVTDECFFFERLESNNYNTYRSRHHHHH (EDGRLLASKCVTDECFFFERLESNNYNTYRSRHHHHH; synthetic peptide pep 3 (37 aa), peptide #3, pep3 with C-terminus 5x HIS-tag) [also expressed recombinantly]	approximately 50%		
nearly no binding affinity	weak and short binding signals	little binding affinity	FERLESNNYN TYRSRHHHHH (FERLESNNYNTYRSRHHHHH; synthetic peptide pep 5 (20 aa), peptide #5, pep5 with C-terminus 5x HIS-tag)		did not stimulate C2C12 cell growth; also recorded: little biological activity	

Sequence	binding affinity to fibrinogen (fibrinogen [1])	binding signal (SPR) (fibrinogen [2])	binding affinity to fibrinogen (fibrinogen [1]; listed as Pep5)	activity retained relative to the full length protein ([3]; relative to full length hFGF-2)	proliferative activity / cell growth effect [3]	binding characteristics to fibrinogen (SPR) (fibrinogen [2]; compared to full-length recombinant hFGF-2)
KCVTDECFFFERLESNNYNTYRSRHHHHH (KCVTDECFFFERLESNNYNTYRSRHHHHH; synthetic peptide pep 4 (29 aa), peptide #4, pep4 with C-terminus 5x HIS-tag)	significantly lower binding	significantly lower compared to hFGF-2 but more consistently over a longer period of 300 seconds; also recorded: lower binding signals than that of hFGF-2			less activity, but similar to full length hFGF-2	confirmed the binding affinity to fibrinogen
